# From the DeepSol protein solubility set
# Assay: soluble on expression in E. coli; label from the status in PepcDB or PDB records
row,Sequence,soluble on expression in E. coli
1,GFVKEPFFTRLIDLESPFEEEFDKNVRYEIKRAQKESLLFSWGEGVPRFVKFFNAFAQSKGLSLLNEAELSYMGEHLRLTEIRANGEPLVMHSYLLDHSIKRVRLLHSASLFRLSQEKDFRALVGRANRLLHFLDMERFKEEGFKIYDFGGVSHSQDPALLGINRFKEGFGGRE,not soluble
2,NGEHTTDIEEQYLEAIRGATQRITLANAYFFPSYRFLRELRNASRRGVKVTLILQGQPDMPFVRVCSRLTYTYLLRDGVVIHEYKQRALHGKVALIDQEWSTVGSSNLDPLSLALNLEANLFIRDKALNQHLQGHLMELAAAHSTQMSLKGAAR,not soluble
3,MYAAKGTQAYAQIGVESAVMSASQQQLVTMLFDGVLSALVRASLFMQDNNQQGKGVSLSKAINIIENGLRVSLDEESKDELTQNLIALYSYMVRRLLQANLRNDVSAVEEVEALMRNIADAWKESLLSPSLIQDPV,soluble
4,MGSDKIHHHHHHMVRQRMTGKERREQLISIGRAVFAERGFDGASVEEIAARANVSKPVVYEHFGGKEGLYAVVIDREMVKLEAMITGSLQHGRSRYRIEQAVLALLTYVEDETDGFLILVRDMRPGERRSYGTLLNDATTQVSHILGNAFTRSGLNAEYANLYGQALVGMVSMTAQWWLDERTPPKEEVAAHIVNLCWNGLTGMEADPKLTPISSAEGAIFGQEKESEA,not soluble
5,MSLTTVMSGVTTLMRAPIGSIRESEGGRDFIRNVFEESVQIMRVLGAPVKENITEEHMKTMDKISYNMKSSMQRDMEKGSSVEGTHLQGYLLDVAKQFSIEAPLLGAVYQNLKVYEEMTLNRSAIELDEGHHHHHH,soluble
6,MEIKLQGKVSLVTGSTRGIGRAIAEKLASAGSTVIITGTSGERAKAVAEEIANKYGVKAHGVEMNLLSEESINKAFEEIYNLVDGIDILVNNAGITRDKLFLRMSLLDWEEVLKVNLTGTFLVTQNSLRKMIKQRWGRIVNISSVVGFTGNVGQVNYSTTKAGLIGFTKSLAKELAPRNVLVNAVAPGFIETDMTAVLSEEIKQKYKEQIPLGRFGSPEEVANVVLFLCSELASYITGEVIHVNGGMF,soluble
7,MGSDKIHHHHHHMAYADKKLYTDAGFTLERGEHLGIVGQNGAGKSTLIKILTGKVLPIAGRVEWKKKIQIGYLDQYADIPSGMSLIDFLHTAYSDLYDKEKKMTDLYSKYAELVDDKLLERATRFQNELDAADFYSIDNNVEQVITGLGLDSIGRDHIISEMSGGQRAKIILAKLLLEGNDVIILDEPTNYLDVSHIKWLEGYLQNYDGAALIISHDFDFLNNVANVILDVSFNTLTKYRGNFDQAMRQKTEKTEQQLRAYNKQQEVIKKTKTFIQKNKARASTTGRAKSREKMLAHMDIIEPPQTNPKATFKFPYIESQSTDALKAERLVVGYDPKKPVLNPITFSMSSGDKIVFTGFNGAGKSTLIKTLLGILPAISGKSKFSPSAKTNYFDQDLIWDDDKKTPLQIMQAAYPLEEQKQLRQRLGAAGINADNATKQMCLLSGGEQTKVKLALMELTPSNFLILDEPTNHLDEATKNSLKKAIQKFDGSLILVTHERSFYEGWIDKVIDIASMSNMQPGEVEE,not soluble
8,MSRDARWKALLELLVERGRLDVEEAATELEVSAATIRRDFDRLAEQQMLVRTRGGAVVHGVSYELPLRYKTARRASEKQRVAQAVAALVAPGEAVGLTGGTTTTEVARALAVRADLASGTPALTVVTNALNIANELAVRPQFKIVVTGGVARAQSYELIGPLADGVLGQVTLDVAVLGVVAFDVAHGAAAHDEAEAAINRLLCERAERVVVAADSSKLGRRAFARICATESVDTLVTDGAADPELVGRFEEAGVRVVTALEHHHHHH,not soluble
9,MGSDKIHHHHHHMKNIYLFIVSLFFFYTGCDTQQTKYPFSVETVLAKAGNNRKELEKALDYFYKQGDSIKIKAIEFLVAHMDIHYSETYYWKTREGKRVDFSEFDYANLETAVKAIDSMRKKYGSLDFQDTIIYDVNSLTGKYLINNVNHAVDTWRLSEYKDIPFNDFCEYILPYRVTVEPVTEWRKEYCKRYHWLTDSLQNKPLENVLDYAAIDYKDWFTFTYGSETRNEPLSRLSAQQLLFRKKGACEDIAALETFIFRSQGIPAAYISVPLWATSAGAHFSNTVFDTKMKPVKLDVTTHAVVDHPLDREPSKVIRYTYSSQPGTLASKEKEECIPTGFLQKTNYIDVTHEYWETSDVTIPLFNDTTHIIYACMFSMGRWNAEWWGERMENSVTFHNMPRGVVILPMIYKEHQLIPIGYPIVNGYNHQLYLVPDLLHTMTVEIEEQDRYLRFRPDKKYELFYWDNAWISLGTQVATMDADCLQFNQVPQNVLMLLVPEYSERKERPFIIMPDGTRYWW,not soluble
